What was measured:
[1] = test system: AAVS1 ZFN pair (ZFN-L/ZFN-R, PPP1R12C intron 1) (synthetic construct); assay: cell_activity; settings: CD34+ cord blood cells, Cel-1 mismatch assay, +/-3.8
[2] = test system: IL2RG ZFN pair (ZFN-L/ZFN-R, exon 5) (synthetic construct); assay: cell_activity; settings: in vitro sample A

For AAVS1 ZFN target site, the activity [1] was 23.8 % NHEJ.
Work on IL2RG ZFN target site yielded an activity ([2]; deep sequencing, B 61.18, G 45.60, Cel-1 assay 26.3+/-2.7 (p192)) of 54.6 % NHEJ.
With SCARB1 off-target site the activity ([2]; B 0.70, G ns, ns in mouse) was 0.17 % NHEJ.
SLC31A1 off-target site showed an activity ([2]; B and G ns, mouse C0 0.02) of 0.61 % NHEJ.
